Results: publication doi:10.1101/2021.08.12.455998

Key:
[1] = biological target: empty disulfide-stabilized HLA-A*02:01 molecule (HLA-A*02:01(Y84C/A139C) heavy chain with beta-2 microglobulin) (human); assay: native MS
[2] = biological target: empty disulfide-stabilized HLA-A*02:01 molecule (HLA-A*02:01(Y84C/A139C) heavy chain with beta-2 microglobulin) (human); assay: nDSF thermal shift

Binder | stoichiometry N [1] | Kd [1] | ΔTm [2] | percent of dsA2 as dsA2/pep (AUC) at 10 V [1]
MVATV [MV5] | 2 |  |  | 
LVPMVATV [LV8] |  | 0.07 µM | 11.6 K | 
GLGGGGGGV [GV9] |  |  | 6.4 K | 43%
NLVPMVAT [NT8] |  | 30 µM |  | 
